Reference: IntAct's records for PubMed 16303566

B1: Gigaxonin (Homo sapiens), Q9H2C0 (parent)
chain: MAEGSAVSDPQHAARLLRALSSFREESRFCDAHLVLDGEEIPVQKNILAAASPYIRTKLNYNPPKDDGSTYKIELEGISVMVMREILDYIFSGQIRLNEDTIQDVVQAADLLLLTDLKTLCCEFLEGCIAAENCIGIRDFALHYCLHHVHYLATEYLETHFRDVSSTEEFLELSPQKLKEVISLEKLNVGNERYVFEAVIRWIAHDTEIRKVHMKDVMSALWVSGLDSSYLREQMLNEPLVREIVKECSNIPLSQPQQGEAMLANFKPRGYSECIVTVGGEERVSRKPTAAMRCMCPLYDPNRQLWIELAPLSMPRINHGVLSAEGFLFVFGGQDENKQTLSSGEKYDPDANTWTALPPMNEARHNFGIVEIDGMLYILGGEDGEKELISMECYDIYSKTWTKQPDLTMVRKIGCYAAMKKKIYAMGGGSYGKLFESVECYDPRTQQWTAICPLKERRFGAVACGVAMELYVFGGVRSREDAQGSEMVTCKSEFYHDEFKRWIYLNDQNLCIPASSSFVYGAVPIGASIYVIGDLDTGTNYDYVREFKRSTGTWHHTKPLLPSDLRRTGCAALRIANCKLFRLQLQQGLFRIRVHSP

Variants of: B1
Conditions: with tbcb_human TBCB

Variant | effect of a mutation on the interaction
R545C | disrupting interaction
